The record followed here is PMC9879999, “A phosphoinositide hub connects CLE peptide signaling and polar auxin efflux regulation” (Nature Communications, 2023).

For this assay, the target named is T1, 6xHis-PBL34 (Arabidopsis thaliana, UniProt Q9LFP7 1-493).
T1 construct: also called 6x His-tagged PBL34 fusion protein; source: E. coli BL21(DE3)-VR2-pACYC-LamP, purified (HisPur cobalt resin); not shown: 6xHis, N-terminal, kept
T1 sequence (looked up): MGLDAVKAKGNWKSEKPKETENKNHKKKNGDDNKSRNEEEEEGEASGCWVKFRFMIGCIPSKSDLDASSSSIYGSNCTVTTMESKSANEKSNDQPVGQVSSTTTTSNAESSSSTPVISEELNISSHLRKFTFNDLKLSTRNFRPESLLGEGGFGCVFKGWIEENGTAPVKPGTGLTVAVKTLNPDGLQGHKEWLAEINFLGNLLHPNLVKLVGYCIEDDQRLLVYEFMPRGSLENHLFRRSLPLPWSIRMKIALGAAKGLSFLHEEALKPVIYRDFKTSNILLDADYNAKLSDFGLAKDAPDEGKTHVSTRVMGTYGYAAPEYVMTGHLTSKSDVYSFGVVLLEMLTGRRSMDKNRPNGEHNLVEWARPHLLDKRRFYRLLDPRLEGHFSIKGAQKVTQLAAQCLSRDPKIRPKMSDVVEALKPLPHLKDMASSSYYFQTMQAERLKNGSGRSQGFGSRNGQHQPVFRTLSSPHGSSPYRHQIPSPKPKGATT
Nature of the assay: pull-down; in vitro pulldown with amylose beads; MBP fusion protein as bait, 6xHis-PBL34 detected by Western blot. The following applies: both partners purified. In general terms: Immunoblotting shows a protein as a band on a membrane.

B1: 6xHis-MBP-BRX (natural protein, Arabidopsis thaliana, UniProt Q17TI5 1-344, looked up)
chain: MFSCIACTKADGGEEVEHGARGGTTPNTKEAVKSLTIQIKDMALKFSGAYKQCKPCTGSSSSPLKKGHRSFPDYDNASEGVPYPFMGGSAGSTPAWDFTNSSHHPAGRLESKFTSIYGNDRESISAQSCDVVLDDDGPKEWMAQVEPGVHITFASLPTGGNDLKRIRFSREMFDKWQAQRWWGENYDKIVELYNVQRFNRQALQTPARSDDQSQRDSTYSKMDSARESKDWTPRHNFRPPGSVPHHFYGGSSNYGPGSYHGGPPMDAARTTTSSRDDPPSMSNASEMQAEWIEEDEPGVYITIRQLSDGTRELRRVRFSRERFGEVHAKTWWEQNRERIQTQYL
notes: source: E. coli BL21(DE3) Rosetta pLysS, purified (HisPur cobalt resin); not shown: MBP, N-terminal, kept
Turning to B1, the binding result is reported as “binds”.
